Source: the supplement of paper PMC10126150
± gives the standard deviation of the averaged measurements.

The sequences below were run on ATP (assay: switch fluorescence ratio, 500 uM ATP over buffer (Cy3 cluster intensity, sum of 5 cycles each) (fold (ratio)); higher = stronger signal-on switching upon ATP binding; sequences stand for … in TCGTCGGCAGCGTCAGATGTGTATAAGAGACAGTTTTTTTTTTTTTTTTTTTTTTTTT…TC). Conditions: aptamer strand: ATP DNA aptamer (quencher-CACCTGGGGGAGTATTGCGGAGGAAGG + anchor), 100 nM annealed; ATP concentration: 500 uM.
Procedure, shortened: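 Cy3-labelled switching-strand clusters on a modified Illumina MiSeq flow-cell were annealed to 100 nM quencher-labelled ATP aptamer and imaged first in selection buffer, then after 15 min with 500 uM ATP at 22 °C. NaOH stripping and re-annealing separated each of five buffer/ATP cycles, and clusters outside 100-1000 RFU were excluded. The fluorescence ratio sums target-cycle Cy3 intensity over buffer-cycle Cy3 intensity per cluster and averages it per switch-domain sequence.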
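Further: ATP exposure 15 min at 22 °C before imaging.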

Sequence	switch fluorescence ratio
TGGTTTCCGT	0.991 ± 0.027
TGGTTTGAGG	0.989 ± 0.035
TGGTTTTAAG	0.98 ± 0.024
TGGTTTTACG	1.019 ± 0.01
TGGTTTTATT	1.01 ± 0.043
TGGTTTTGGA	0.976 ± 0.056
TGGTTTTTGT	1.1 ± 0.2
TGGTTTTTTG	0.996 ± 0.017
TGTAAACGGG	1.09 ± 0.12
TGTAAATAAG	0.991 ± 0.043
TGTAACCCAT	1.02 ± 0.061
TGTAACGAAA	1.008 ± 0.0027
TGTAACGGGG	1.03 ± 0.032
TGTAAGACCC	1.06 ± 0.033
TGTAAGAGTG	0.983 ± 0.021
TGTAATACGT	1.17 ± 0.019
TGTAATCCGG	0.986 ± 0.012
TGTAATCTAC	1.06 ± 0.057
TGTAATGGTT	1.004 ± 0.01
TGTACGGGGA	0.995 ± 0.03
TGTAGAGGTG	1.09 ± 0.022
TGTAGCAGCT	1.12 ± 0.045
TGTAGCTTGT	1.09 ± 0.075
TGTAGGGGAA	0.996 ± 0.011
TGTAGGGGGC	1.27 ± 0.39
TGTAGGGTTC	1.12 ± 0.19

Sequence	switch fluorescence ratio
TGTAGTAGCG	0.9901 ± 0.0064
TGTAGTTGTG	1.02 ± 0.061
TGTAGTTTAG	1.01 ± 0.032
TGTAGTTTGT	0.973 ± 0.034
TGTATGGTTT	0.971 ± 0.048
TGTATGTCGG	0.959 ± 0.03
TGTATTCAAT	0.986 ± 0.013
TGTATTCAGG	1.01 ± 0.056
TGTATTTTT	0.98586 ± 0.00097
TGTCACTGTG	0.979 ± 0.049
TGTCAGGGCC	1.04 ± 0.053
TGTCAGTGCT	1.015 ± 0.0066
TGTCAGTTTC	0.987 ± 0.018
TGTCCAGCTC	1.49 ± 0.65
TGTCCCTCTT	1.02 ± 0.053
TGTCCGGGGG	0.994 ± 0.029
TGTCGGGATT	1.03 ± 0.053
TGTCGGGGGT	1.22 ± 0.18
TGTCGTTATT	0.9546 ± 0.0018
TGTCTATTTT	1.019 ± 0.0033
TGTCTGGGGG	1.01 ± 0.025
TGTCTTTATT	0.988 ± 0.016
TGTGAAGTTT	0.9595 ± 0.0076
TGTGAGAGGG	1 ± 0.019
TGTGAGAGTT	0.9826 ± 0.0098
TGTGAGCAGG	1.15 ± 0.044

Sequence	switch fluorescence ratio
TGTGAGCCTG	0.98 ± 0.092
TGTGAGCTGT	1.0077 ± 0.00016
TGTGAGGCGG	1.04 ± 0.11
TGTGAGGGGT	0.994 ± 0.033
TGTGAGGTGT	1.02 ± 0.062
TGTGAGTAGG	1.02 ± 0.017
TGTGAGTGTG	0.983 ± 0.015
TGTGATAGAG	0.989 ± 0.029
TGTGATGAGT	0.992 ± 0.024
TGTGATGGTT	1.005 ± 0.0013
TGTGATTTAA	1.002 ± 0.0028
TGTGATTTAT	1.0046 ± 0.00072
TGTGATTTGA	0.9763 ± 0.0026
TGTGCAATGT	1.3 ± 0.029
TGTGCCCCTT	0.991 ± 0.042
TGTGCTCGGA	1.04 ± 0.1
TGTGCTGGGT	1.02 ± 0.024
TGTGGAAGGT	0.9999 ± 0.0078
TGTGGCAAGA	1.14 ± 0.14
TGTGGCGGGA	1.06 ± 0.13
TGTGGCTCTG	0.9571 ± 0.0087
TGTGGGATAC	1.2 ± 0.015
TGTGGGCGC	1.01 ± 0.098
TGTGGGGACC	1.05 ± 0.05
TGTGGGGAGG	0.969 ± 0.027
TGTGGGGCAA	1.05 ± 0.019

Sequence	switch fluorescence ratio
TGTGGGGGAT	1.01 ± 0.06
TGTGGGGTAG	1.01 ± 0.029
TGTGGGTGAG	1 ± 0.02
TGTGGTAGAA	0.989 ± 0.023
TGTGGTATTA	0.976 ± 0.036
TGTGGTATTT	0.972 ± 0.027
TGTGGTGCGA	0.995 ± 0.029
TGTGGTGGGG	0.996 ± 0.042
TGTGGTGGGT	1.042 ± 0.0097
TGTGTAAAGT	1.82 ± 1.2
TGTGTAATTG	1.01 ± 0.032
TGTGTATTGT	0.985 ± 0.031
TGTGTCAGCT	0.9981 ± 0.0041
TGTGTCATGT	0.989 ± 0.013
TGTGTCTGTT	0.9933 ± 0.0025
TGTGTCTTTT	1.01 ± 0.047
TGTGTGAGT	0.964 ± 0.013
TGTGTGAGTG	0.981 ± 0.054
TGTGTGCCGG	0.9332 ± 0.0057
TGTGTGTTTA	1.01 ± 0.012
TGTGTGTTTG	0.989 ± 0.015
TGTGTTATAC	1.05 ± 0.043
TGTGTTATGT	1.03 ± 0.038
TGTGTTATTT	0.999 ± 0.024
TGTGTTCACA	0.98 ± 0.0058
TGTGTTCACT	1.01 ± 0.036

Sequence	switch fluorescence ratio
TGTGTTCCGA	0.9975 ± 0.0083
TGTGTTTAGT	1.01 ± 0.013
TGTGTTTATA	1.013 ± 0.0095
TGTGTTTGAG	0.972 ± 0.051
TGTTAAACGG	1.01 ± 0.039
TGTTAATGGG	0.997 ± 0.016
TGTTACTCCT	1.09 ± 0.026
TGTTAGGGTT	1.01 ± 0.04
TGTTAGTCTA	0.9884 ± 0.0052
TGTTATAAAT	0.999 ± 0.032
TGTTATACGT	1.02 ± 0.019
TGTTATGAGT	0.99 ± 0.036
TGTTATGGGT	1.04 ± 0.039
TGTTATGTTT	0.99 ± 0.032
TGTTATTGAA	0.992 ± 0.046
TGTTATTGGT	1.01 ± 0.015
TGTTATTTGT	0.975 ± 0.048
TGTTCAGACG	1.03 ± 0.053
TGTTCCGTAT	0.993 ± 0.044
TGTTCGACCG	1.012 ± 0.01
TGTTCGGGAT	0.977 ± 0.01
TGTTCTTAGT	1 ± 0.048
TGTTGAAAAG	0.979 ± 0.01
TGTTGAAAAT	1.02 ± 0.048
TGTTGAACGT	1.004 ± 0.0086
TGTTGAGTTG	0.9749 ± 0.0031

Sequence	switch fluorescence ratio
TGTTGATACT	1.06 ± 0.12
TGTTGCAGAG	1.03 ± 0.049
TGTTGCGAAA	1 ± 0.025
TGTTGCGCCG	0.929 ± 0.081
TGTTGCGTGG	0.992 ± 0.012
TGTTGGGAGG	0.969 ± 0.017
TGTTGGGGAC	1.023 ± 0.0065
TGTTGGGTTT	0.998 ± 0.031
TGTTGGTAAT	0.996 ± 0.012
TGTTGGTATA	1.01 ± 0.012
TGTTGGTGGG	0.989 ± 0.024
TGTTGTGATT	0.994 ± 0.023
TGTTGTGCAC	1.02 ± 0.023
TGTTGTTTCG	0.989 ± 0.025
TGTTGTTTGT	1.02 ± 0.026
TGTTTAAAGG	1.02 ± 0.051
TGTTTAACAT	0.981 ± 0.035
TGTTTACTTT	0.98 ± 0.014
TGTTTAGCTT	1.024 ± 0.0066
TGTTTATTAG	0.986 ± 0.01
TGTTTATTCC	1.11 ± 0.087
TGTTTCAACT	0.9843 ± 0.0045
TGTTTCCATG	0.988 ± 0.016
